The source of these data is article PMC2927601, “Molecular basis for defect in Alix-binding by alternatively spliced isoform of ALG-2 (ALG-2^ΔGF122) and structural roles of F122 in target recognition” (BMC Structural Biology, 2010).

B1: ALG-2^F122A, full-length recombinant (natural protein, human, UniProt O75340 1-191, looked up)
chain: MAAYSYRPGPGAGPGPAAGAALPDQSFLWNVFQRVDKDRSGVISDTELQQALSNGTWTPFNPVTVRSIISMFDRENKAGVNFSEFTGVWKYITDWQNVFRTYDRDNSGMIDKNELKQALSGAGYRLSDQFHDILIRKFDRQGRGQIAFDDFIQGCIVLQRLTDIFRRYDTDQDGWIQVSYEQYLSMVFSIV
notes: ALG-2, human, 191 residues, Phe122 substituted with Ala; PDB 2ZN8 is the wild-type full-length parent
B2: ALG-2^F122W, full-length recombinant (natural protein, human, UniProt O75340 1-191, looked up)
chain: B1 chain with A122W
notes: ALG-2, human, 191 residues, Phe122 substituted with Trp; PDB 2ZN8 is the wild-type full-length parent
B3: ALG-2^F122S, full-length recombinant (natural protein, human, UniProt O75340 1-191, looked up)
chain: B1 chain with A122S
notes: ALG-2, human, 191 residues, Phe122 substituted with Ser; PDB 2ZN8 is the wild-type full-length parent
B4: ALG-2^F122G, full-length recombinant (natural protein, human, UniProt O75340 1-191, looked up)
chain: B1 chain with A122G
notes: ALG-2, human, 191 residues, Phe122 substituted with Gly; PDB 2ZN8 is the wild-type full-length parent
B5: synthetic peptide of the ALG-2-binding site in Alix with N-terminal linker (peptide)
peptide: KGGSGGSQGPPYPTYPGYPGYSQ
notes: linker, printed in lower case; also called Alix ABS peptide; ABS oligopeptide; source: synthetic peptide (Biosynthesis Inc., USA)

In test [1] the target is B5. Description: SPR; Biacore2000, 25°C; Alix ABS peptide immobilized on CM5 chip; ALG-2 proteins 100 nM in HBS-P (10 mM HEPES-NaOH pH 7.4, 150 mM NaCl, 0.005% P20) with 100 μM CaCl2, 20 μl/min, injected 180 s; resonance signal at 10 s before dissociation phase relative to WT. The following applies: both partners purified.
For test [2], the target named is T1, ALG-2 (apoptosis-linked gene 2), wild type, full-length recombinant (human, UniProt O75340 1-191).
T1 construct: ALG-2, human, 22-kDa protein of 191 amino acid residues; longer (major) isoform regarded as wild type; also called WT; wild-type ALG-2
The test is described as above. The following applies: both partners purified.

Where a chain is given by its changes, count along the chain named. Names and notes keep the numbering of the source.

Consider B1, for which the “relative binding capacity (% of WT resonance signal)” value in test [1] came out at 240%.

For B2, the “relative binding capacity (% of WT resonance signal)” value in test [1] came out at 36%.

Take B3: the “relative binding capacity (% of WT resonance signal)” value in test [1] was 89%.

Take B4: the “relative binding capacity (% of WT resonance signal)” value in test [1] worked out at 140%.

B5: the binding result in test [2] is “binds”.
